Measured values from US20240382605A1 (IONIS PHARMACEUTICALS, published 2024).
Read-outs that look alike come from different tables or passages of the source. Starred links: 1 amine or outer side, 2 acyl side, 3 side chain; linkers in the order of their positions; H or OH if unused. Positions of bridges follow the written chain, without caps; N, C: chain ends. Non-standard residues stand in square brackets, D forms with d. Primed or numbered codes have the meaning given here. No end group written: not given here. *: point of attachment. azidopropyl = N-terminal modification AzPro, [N-]=[N+]=NCCC*; TATB = O=C(C[*:1])N1CN(C(=O)C[*:2])CN(C(=O)C[*:3])C1; oligonucleotide 1590463 = not defined here; Hyp = O=C(O)[C@@H]1C[C@@H](O)CN1; azidopropyl″ = [N-]=[N+]=NCCC*

B1: 1590463-BCY17870 (peptide)
peptide: NWNCSPDAHLGCISYCX
modifications: not fully specified; as printed NWNCSPDAHLGCISYC[K(N3)]: no N-terminal modification; C-terminal amide; three Cys bound to TATB scaffold; [K(N3)] 6-azido lysine at 17 joined via BCN linker to oligonucleotide 1590463
notes: also called Compound No. 1590463 conjugated to BCY17870
B2: 1591118-BCY17896 (peptide)
peptide: CPXDAYLGCXSYCX
modifications: as printed CP[HyP]DAYLGC[tBuGly]SYC[K(N3)]: N-terminal acetyl; C-terminal amide; three Cys bound to TATB scaffold; [HyP] 4-trans-hydroxy-L-proline at 3; [tBuGly] t-butyl glycine at 10; [K(N3)] 6-azido lysine at 14 joined via BCN linker to oligonucleotide 1591118
notes: also called Compound No. 1591118 conjugated to BCY17896
B3: 1590463-BCY17871 (peptide)
peptide: NWNCSPDAHLGCISYCX
modifications: not fully specified; as printed NWNCSPDAHLGCISYC[K(N3)]: N-terminal acetyl; C-terminal amide; three Cys bound to TATB scaffold; [K(N3)] 6-azido lysine at 17 joined via BCN linker to oligonucleotide 1590463
notes: also called Compound No. 1590463 conjugated to BCY17871
B4: 1590463-BCY17899 (peptide)
peptide: NWNCPXDAYLGCXSYCX
modifications: not fully specified; as printed NWNCP[HyP]DAYLGC[tBuGly]SYC[K(N3)]: N-terminal acetyl; C-terminal amide; three Cys bound to TATB scaffold; [HyP] 4-trans-hydroxy-L-proline at 6; [tBuGly] t-butyl glycine at 13; [K(N3)] 6-azido lysine at 17 joined via BCN linker to oligonucleotide 1590463
notes: also called Compound No. 1590463 conjugated to BCY17899
B5: 1614439-BCY17906 (peptide)
peptide: CSPDAHLGCISYCX
modifications: not fully specified; as printed CSPDAHLGCISYC[K(N3)(PYA-Maleimide)]: N-terminal acetyl; C-terminal amide; three Cys bound to TATB scaffold; modified lysine [K(N3)(PYA-Maleimide)] at 14 joined to oligonucleotide 1614439 (5' 6-mercaptohexanol linker)
notes: the coupling chemistry of this pair is not spelled out; also called Compound No. 1614439 conjugated to BCY17906
B6: 1590463-BCY17878 (peptide)
peptide: {oligonucleotide 1590463-BCN linker-azidopropyl}-CS[Hyp]DAHLGCISYC-NH2
modifications: linker 1-9-13 via TATB; reading uncertain; also: printed as CS[HyP]DAHLGCISYC
notes: also called Compound No. 1590463 conjugated to BCY17878
B7: 1590463-BCY17882 (peptide)
peptide: NXNCSPDAHLGCISYCX
modifications: not fully specified; as printed N[dY]NCSPDAHLGCISYC[K(N3)]: N-terminal acetyl; C-terminal amide; three Cys bound to TATB scaffold; [dY] D-tyrosine at 2; [K(N3)] 6-azido lysine at 17 joined via BCN linker to oligonucleotide 1590463
notes: also called Compound No. 1590463 conjugated to BCY17882
B8: 1590463-BCY19405 (peptide)
peptide: Ac-CSPDAHLGCISYCEPW
modifications: linker 1-9-13 via TATB; not fully specified (C-terminus); printed as CSPDAHLGCISYCEPW[PEG10][K(N3)]; also: azide of C-terminal K(N3) clicked via BCN linker to oligonucleotide 1590463
notes: also called Compound No. 1590463 conjugated to BCY19405
B9: 1590463-BCY17901 (peptide)
peptide: CPXDAYLGCXSYCEPWX
modifications: not fully specified; as printed CP[HyP]DAYLGC[tBuGly]SYCEPW[K(N3)]: N-terminal acetyl; C-terminal amide; three Cys bound to TATB scaffold; [HyP] 4-trans-hydroxy-L-proline at 3; [tBuGly] t-butyl glycine at 10; [K(N3)] 6-azido lysine at 17 joined via BCN linker to oligonucleotide 1590463
notes: also called Compound 1590463-BCY17901; Compound No. 1666846
B10: 1590463-BCY17879 (peptide)
peptide: CSXDAHLGCISYCX
modifications: not fully specified; as printed CS[Aze]DAHLGCISYC[K(N3)]: N-terminal acetyl; C-terminal amide; three Cys bound to TATB scaffold; [Aze] azetidine at 3; [K(N3)] 6-azido lysine at 14 joined via BCN linker to oligonucleotide 1590463
notes: also called Compound No. 1590463 conjugated to BCY17879
B11: 1590463-BCY17892 (peptide)
peptide: CSPDAHLGCISYCEXWX
modifications: not fully specified; as printed CSPDAHLGCISYCE[Aze]W[K(N3)]: N-terminal acetyl; C-terminal amide; three Cys bound to TATB scaffold; [Aze] azetidine at 15; [K(N3)] 6-azido lysine at 17 joined via BCN linker to oligonucleotide 1590463
notes: also called Compound No. 1590463 conjugated to BCY17892
B12: 1590463-BCY17873 (peptide)
peptide: CSPDAHLGCISYCEPWX
modifications: not fully specified; as printed CSPDAHLGCISYCEPW[K(N3)]: N-terminal acetyl; C-terminal amide; three Cys bound to TATB scaffold; [K(N3)] 6-azido lysine at 17 joined via BCN linker to oligonucleotide 1590463
notes: also called Compound No. 1590463 conjugated to BCY17873
B13: 1590463-BCY17874 (peptide)
peptide: {oligonucleotide 1590463-BCN linker-azidopropyl}-CSPDAHLGCISYCEPW-NH2
modifications: linker 1-9-13 via TATB; reading uncertain
notes: also called Compound No. 1590463 conjugated to BCY17874
B14: 1590463-BCY17877 (peptide)
peptide: CSXDAHLGCISYCX
modifications: not fully specified; as printed CS[HyP]DAHLGCISYC[K(N3)]: N-terminal acetyl; C-terminal amide; three Cys bound to TATB scaffold; [HyP] 4-trans-hydroxy-L-proline at 3; [K(N3)] 6-azido lysine at 14 joined via BCN linker to oligonucleotide 1590463
notes: also called Compound No. 1590463 conjugated to BCY17877
B15: 1590463-BCY17869 (peptide)
peptide: {oligonucleotide 1590463-BCN linker-azidopropyl″}-CSPDAHLGCISYC-NH2
modifications: linker 1-9-13 via TATB; reading uncertain
notes: also called Compound No. 1590463 conjugated to BCY17869
B16: 1591118-BCY17901 (peptide)
peptide: CPXDAYLGCXSYCEPWX
modifications: as printed CP[HyP]DAYLGC[tBuGly]SYCEPW[K(N3)]: N-terminal acetyl; C-terminal amide; three Cys bound to TATB scaffold; [HyP] 4-trans-hydroxy-L-proline at 3; [tBuGly] t-butyl glycine at 10; [K(N3)] 6-azido lysine at 17 joined via BCN linker to oligonucleotide 1591118
notes: also called Compound No. 1591118 conjugated to BCY17901
B17: 1598988-BCY17901 (peptide)
peptide: CPXDAYLGCXSYCEPWX
modifications: as printed CP[HyP]DAYLGC[tBuGly]SYCEPW[K(N3)]: N-terminal acetyl; C-terminal amide; three Cys bound to TATB scaffold; [HyP] 4-trans-hydroxy-L-proline at 3; [tBuGly] t-butyl glycine at 10; [K(N3)] 6-azido lysine at 17 joined via BCN linker to oligonucleotide 1598988

Assays:
[1] = biological target: T1, hCD71-Nluc fusion protein (human, UniProt P02786 1-760); experiment: nanoBRET competition, tracer BCY17871-1598988 60 nM, HEK293 hCD71-Nluc membranes
T1 construct: whole, on cells; Used as crude membrane fractions of HEK293 cells stably expressing hCD71-Nluc; also called human transferrin receptor, CD71, fused to NanoLuc; not shown: NanoLuc (ProMega) luciferase joined through its N-terminal Val
T1 sequence (P02786 other isoform, or with tags, fused parts or gaps): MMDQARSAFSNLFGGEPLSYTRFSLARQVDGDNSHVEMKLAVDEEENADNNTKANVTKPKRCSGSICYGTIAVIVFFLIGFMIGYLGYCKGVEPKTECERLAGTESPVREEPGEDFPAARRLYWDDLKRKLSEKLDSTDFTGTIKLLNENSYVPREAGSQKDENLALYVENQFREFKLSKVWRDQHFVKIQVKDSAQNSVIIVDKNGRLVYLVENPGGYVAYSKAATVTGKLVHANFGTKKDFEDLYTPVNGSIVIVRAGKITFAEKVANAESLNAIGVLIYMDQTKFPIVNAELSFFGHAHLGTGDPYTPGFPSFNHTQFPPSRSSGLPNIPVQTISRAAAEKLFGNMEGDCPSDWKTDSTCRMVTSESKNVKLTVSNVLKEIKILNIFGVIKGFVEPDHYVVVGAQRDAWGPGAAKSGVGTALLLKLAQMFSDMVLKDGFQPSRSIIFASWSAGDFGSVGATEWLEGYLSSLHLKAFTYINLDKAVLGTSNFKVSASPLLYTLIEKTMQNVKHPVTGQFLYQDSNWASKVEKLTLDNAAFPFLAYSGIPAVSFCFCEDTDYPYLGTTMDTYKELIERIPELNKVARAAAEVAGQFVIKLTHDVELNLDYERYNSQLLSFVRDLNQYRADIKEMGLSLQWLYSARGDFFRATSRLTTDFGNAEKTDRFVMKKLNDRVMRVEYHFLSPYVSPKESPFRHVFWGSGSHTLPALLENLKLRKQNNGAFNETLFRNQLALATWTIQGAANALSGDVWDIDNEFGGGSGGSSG

CD71 = biological target: T2, CD71 (Homo sapiens (Human), UniProt P02786 89-760); experiment: SPR Biacore X100, conjugate duplexed to biotin-DNA on streptavidin chip, CD71 injected 6.25-100 nM, 1:1 fit
T2 construct: also called transferrin receptor; TfR1
T2 sequence (P02786 89-760 limits assumed, form in doubt): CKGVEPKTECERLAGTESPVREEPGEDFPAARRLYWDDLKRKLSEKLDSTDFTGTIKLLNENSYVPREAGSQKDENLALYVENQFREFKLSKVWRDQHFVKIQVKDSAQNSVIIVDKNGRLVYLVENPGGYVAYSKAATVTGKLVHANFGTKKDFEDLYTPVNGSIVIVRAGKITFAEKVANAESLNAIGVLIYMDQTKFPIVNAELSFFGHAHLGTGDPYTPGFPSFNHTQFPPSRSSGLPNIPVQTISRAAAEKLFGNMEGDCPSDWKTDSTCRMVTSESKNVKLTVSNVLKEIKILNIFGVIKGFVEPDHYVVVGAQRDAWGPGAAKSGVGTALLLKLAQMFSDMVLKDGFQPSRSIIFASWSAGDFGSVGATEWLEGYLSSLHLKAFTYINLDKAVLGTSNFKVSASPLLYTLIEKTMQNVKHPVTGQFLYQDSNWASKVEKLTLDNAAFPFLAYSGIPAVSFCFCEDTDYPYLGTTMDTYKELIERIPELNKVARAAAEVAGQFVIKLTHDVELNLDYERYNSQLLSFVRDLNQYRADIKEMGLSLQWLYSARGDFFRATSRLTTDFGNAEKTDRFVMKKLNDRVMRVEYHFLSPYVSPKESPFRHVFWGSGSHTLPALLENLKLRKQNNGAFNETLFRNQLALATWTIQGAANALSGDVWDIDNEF
Method: The binding affinity for each of the following modified oligonucleotides conjugated to CD71 bicycle ligands was tested on a Biacore X100 surface plasmon resonance (SPR) instrument. 200 units of modified oligonucleotides conjugated to CD71 bicycle ligand were immobilized on a streptavidin chip by injecting a 20 nM solution of 5′-Biotin-labeled DNA (5′-Biotin-TEG-DNA complement to modified oligonucleotide) duplexed with modified oligonucleotides conjugated to CD71 bicycle ligand in HBS—P (10 mM HEPES, pH 7.4, 150 mM NaCl, 0.0005% Surfactant P20) running buffer. […] Kinetic and equilibrium binding analysis was performed using Biacore X100 Evaluation Software, applying 1:1 binding fit.

[2] = biological target: T1, hCD71-Nluc fusion protein; experiment: nanoBRET competition, tracer BCY17871-1598988 60 nM, HEK293 hCD71-Nluc membranes; remark: listed apart in the source
Method: (§1) The mixtures were incubated for 3 hours at room temperature to reach equilibrium. To initiate BRET, 12.4 μL of 100 μM of the Nluc substrate furimazine was added to each well, and the mixtures were incubated for 5-30 minutes. The assay plate was read on a Promega GlowMax Discover plate reader at wavelengths of 450 nm and 600 nm, and the ratio of emissions at wavelengths 450/600 were used to yield % BRET efficiency. Data was subjected to non-linear regression, then fitted to a single site binding hyperbolic function.
(§2) In order to evaluate modified oligonucleotides conjugated to CD71 bicycle ligands and RNAi compounds conjugated to CD71 bicycle ligands, the assay was modified as follows. […] Modified oligonucleotides were conjugated to the bicycle ligands through a SPAAC reaction These were then added at a range of concentrations in triplicate assays points, and the mixtures were incubated for 3 hours at room temperature. BRET was initiated with the addition of furimazine and the assay was completed as described above.

[3] = biological target: T1, hCD71-Nluc fusion protein; experiment: as above; remark: listed apart in the source
Method: as §1, §2

[4] = biological target: T1, hCD71-Nluc fusion protein; experiment: as above; remark: listed apart in the source
Method: as §1, §2

[5] = biological target: T1, hCD71-Nluc fusion protein; experiment: as above; remark: listed apart in the source
Method: as §1, §2

[6] = biological target: T1, hCD71-Nluc fusion protein; experiment: as above; remark: listed apart in the source
Method: as §1, §2

Binder | Ki [1] | Kd (CD71) | Ki [3] | Ki [5] | further results
B1 | 7 nM | 0.1 nM |  |  | 
B2 |  |  |  |  | Ki [2]: 3.1 nM
B3 | 6 nM | 2.4 nM |  |  | 
B4 |  |  | 1 nM | 4 nM | Ki [4]: 4 nM
B5 |  |  | 2 nM | 23 nM | 
B6 | 74 nM | 126 nM |  |  | 
B7 |  |  | 3 nM | 55 nM | Ki [4]: 23 nM
B8 |  |  |  |  | Ki [6]: 3 nM
B9 |  |  | 0.3 nM | 1 nM | Ki [4]: 1 nM
B10 | 25 nM | 31.2 nM |  |  | 
B11 |  |  | 1 nM | 11 nM | Ki [4]: 11 nM
B12 | 6 nM | 12 nM | 1 nM | 10 nM | Ki [4]: 7 nM; Ki [6]: 4 nM
B13 | 10 nM | 32 nM |  |  | 
B14 | 18 nM |  |  |  | 
B15 | 55 nM | 14.5 nM |  |  | 
B16 |  |  |  |  | Ki [2]: 1.4 nM
B17 |  |  |  |  | Ki [2]: 4.4 nM
